# Data taken from patent publication US10280205B2, “Method for treating cancer with an activated T lymphocyte that selectively recognizes a cancer cell consisting of specific peptide” (immatics biotechnologies GmbH, priority 2015, dated 2019).
# Target: HLA-A*02:01 (Homo sapiens, UniProt P04439, D140Y/D185E/D98H/E176V/E277Q/G131W/G231S/I119V/I121R/I166T/I218V/L300P/L318F/N151K/N90K/P208A/P217A/Q86G/Q94H/R138H/R169H/T345S)
# Experiment: MHC binding assay: UV-ligand exchange with beta2m ELISA (exchange yield)
# Conditions: binding to HLA-A*02:01, β2m ELISA
# Summary of the method: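 Exchange yield reflects how much β2m remains bound, measured by ELISA: streptavidin capture of 100-fold diluted monomers, HRP anti-β2m at 37° C. for 1 h, TMB read at 450 nm. Monomers come from UV cleavage of a conditional HLA-A*02:01 ligand in the presence of the candidate peptide.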
row,Substance,"Peptide exchange (MHC class I binding score, peptide exchange yield)"
1,351 (SLIPNLRNV; listed as Homo sapiens) [compound 351],“+++” (≥50 = +++)
2,352 (SLLELLHIYV; listed as Homo sapiens) [compound 352],“+++” (≥50 = +++)
3,353 (YLFEMDSSL; listed as Homo sapiens) [compound 353],“++” (≥20% = ++)
4,354 (LILEGVDTV; listed as Homo sapiens) [compound 354],“++” (≥20% = ++)
5,355 (SIQQSIERLLV; listed as Homo sapiens) [compound 355],“++” (≥20% = ++)
6,356 (KLLGKLPEL; listed as Homo sapiens) [compound 356],“+++” (≥50 = +++)
7,357 (SMHDLVLQV; listed as Homo sapiens) [compound 357],“+++” (≥50 = +++)
8,358 (ALDEYTSEL; listed as Homo sapiens) [compound 358],“++++” (≥75% = ++++)
9,359 (YLLPESVDL; listed as Homo sapiens) [compound 359],“+++” (≥50 = +++)
10,361 (ALYELEGTTV; listed as Homo sapiens) [compound 361],“+++” (≥50 = +++)
11,362 (TLYGLSVLL; listed as Homo sapiens) [compound 362],“+++” (≥50 = +++)
12,363 (KVLDVSDLESV; listed as Homo sapiens) [compound 363],“++” (≥20% = ++)
13,364 (LLQNEQFEL; listed as Homo sapiens) [compound 364],“+++” (≥50 = +++)
14,365 (YVIDQGETDVYV; listed as Homo sapiens) [compound 365],“+++” (≥50 = +++)
15,366 (RLLDMGETDLML; listed as Homo sapiens) [compound 366],“+++” (≥50 = +++)
16,367 (SLQNHNHQL; listed as Homo sapiens) [compound 367],“+++” (≥50 = +++)
17,369 (GLFPEHLIDV; listed as Homo sapiens) [compound 369],“+++” (≥50 = +++)
18,370 (SLLQDLVSV; listed as Homo sapiens) [compound 370],“+++” (≥50 = +++)
19,371 (FLQAHLHTA; listed as Homo sapiens) [compound 371],“++++” (≥75% = ++++)
20,372 (TMLLNIPLV; listed as Homo sapiens) [compound 372],“++” (≥20% = ++)
21,373 (SLLEDKGLAEV; listed as Homo sapiens) [compound 373],“++” (≥20% = ++)
22,374 (FLLQQHLISA; listed as Homo sapiens) [compound 374],“++” (≥20% = ++)
23,375 (SLTETIEGV; listed as Homo sapiens) [compound 375],“++” (≥20% = ++)

row,Substance,"Peptide exchange (MHC class I binding score, peptide exchange yield)"
1,376 (AMFESSQNVLL; listed as Homo sapiens) [compound 376],“++” (≥20% = ++)
2,377 (FLLDSSASV; listed as Homo sapiens) [compound 377],“++” (≥20% = ++)
3,378 (ALGYFVPYV; listed as Homo sapiens) [compound 378],“+++” (≥50 = +++)
4,379 (IMEGTLTRV; listed as Homo sapiens) [compound 379],“++” (≥20% = ++)
5,380 (TLIEDEIATI; listed as Homo sapiens) [compound 380],“++” (≥20% = ++)
6,381 (FIDEAYVEV; listed as Homo sapiens) [compound 381],“++” (≥20% = ++)
7,382 (ALQNYIKEA; listed as Homo sapiens) [compound 382],“++” (≥20% = ++)
8,383 (ALLELENSVTL; listed as Homo sapiens) [compound 383],“+++” (≥50 = +++)
9,385 (SLLEQGLVEA; listed as Homo sapiens) [compound 385],“++” (≥20% = ++)
10,386 (ILFRYPLTI; listed as Homo sapiens) [compound 386],“+++” (≥50 = +++)
11,387 (ALFQATAEV; listed as Homo sapiens) [compound 387],“++++” (≥75% = ++++)
12,388 (SLTIDGIRYV; listed as Homo sapiens) [compound 388],“+++” (≥50 = +++)
13,389 (LLADVTHLL; listed as Homo sapiens) [compound 389],“++” (≥20% = ++)
14,390 (ALFMKQIYL; listed as Homo sapiens) [compound 390],“+++” (≥50 = +++)
15,391 (YVYPQRLNFV; listed as Homo sapiens) [compound 391],“+++” (≥50 = +++)
16,392 (ALLHPQGFEV; listed as Homo sapiens) [compound 392],“++” (≥20% = ++)
17,393 (GLLDTQTSQVLTA; listed as Homo sapiens) [compound 393],“++” (≥20% = ++)
18,394 (LLAVIGGLVYL; listed as Homo sapiens) [compound 394],“+++” (≥50 = +++)
19,395 (ALALGGIAVV; listed as Homo sapiens) [compound 395],“++++” (≥75% = ++++)
20,396 (ALLPDLPAL; listed as Homo sapiens) [compound 396],“+++” (≥50 = +++)
21,397 (YLFGERLLEC; listed as Homo sapiens) [compound 397],“+++” (≥50 = +++)
22,398 (KLLEEDGTIITL; listed as Homo sapiens) [compound 398],“++” (≥20% = ++)
23,399 (YLFEPLYHV; listed as Homo sapiens) [compound 399],“+++” (≥50 = +++)

row,Substance,"Peptide exchange (MHC class I binding score, peptide exchange yield)"
1,400 (SLLTEQDLWTV; listed as Homo sapiens) [compound 400],“++” (≥20% = ++)
2,401 (ILLDDTGLAYI; listed as Homo sapiens) [compound 401],“+++” (≥50 = +++)
3,402 (VLFSGALLGL; listed as Homo sapiens) [compound 402],“++” (≥20% = ++)
4,403 (KLYDRILRV; listed as Homo sapiens) [compound 403],“++” (≥20% = ++)
5,405 (ALYDVFLEV; listed as Homo sapiens) [compound 405],“++” (≥20% = ++)
6,407 (YLMDLINFL; listed as Homo sapiens) [compound 407],“+++” (≥50 = +++)
7,408 (VLDDSIYLV; listed as Homo sapiens) [compound 408],“++” (≥20% = ++)
8,409 (LLDAMNYHL; listed as Homo sapiens) [compound 409],“++” (≥20% = ++)
9,412 (YLDDLNEGVYI; listed as Homo sapiens) [compound 412],“++” (≥20% = ++)
10,426 (RLADKSVLV; listed as Homo sapiens) [compound 426],“+++” (≥50 = +++)
11,427 (ALLPLSPYL; listed as Homo sapiens) [compound 427],“+++” (≥50 = +++)
12,428 (KLGHTDILVGV; listed as Homo sapiens) [compound 428],“++” (≥20% = ++)
13,429 (GLVNDLARV; listed as Homo sapiens) [compound 429],“++” (≥20% = ++)
14,430 (HLYSSIEHLTT; listed as Homo sapiens) [compound 430],“+++” (≥50 = +++)
15,431 (SLVNVVPKL; listed as Homo sapiens) [compound 431],“++” (≥20% = ++)
16,432 (TLIEESAKV; listed as Homo sapiens) [compound 432],“++” (≥20% = ++)
17,433 (AMLNEPWAV; listed as Homo sapiens) [compound 433],“+++” (≥50 = +++)
18,434 (KVSNSGITRV; listed as Homo sapiens) [compound 434],“++” (≥20% = ++)
19,436 (HLAEVSAEV; listed as Homo sapiens) [compound 436],“+++” (≥50 = +++)
20,437 (SMAPGLVIQAV; listed as Homo sapiens) [compound 437],“+++” (≥50 = +++)
21,438 (KLLPLAGLYL; listed as Homo sapiens) [compound 438],“++++” (≥75% = ++++)
